The source of these data is paper PMC9605926, “Safety of [^177Lu]Lu-NeoB treatment: a preclinical study characterizing absorbed dose and acute, early, and late organ toxicity” (European Journal of Nuclear Medicine and Molecular Imaging, 2022).

The subject of series [1] is healthy Balb/c mice. In words: Toxicity study, histopathology (5-point grade); 3 i.v. injections at 7-day interval; control group 2 = 3× 1200 pmol [175Lu]Lu-NeoB; treatment groups 1/2/3 = 3× 40 MBq/400 pmol, 80 MBq/800 pmol, 120 MBq/1200 pmol [177Lu]Lu-NeoB. It counts as in vivo, mouse. As for the experimental part:
(§1) Five different experimental groups (10 male and 10 female healthy animals per group; n = 100) were included in the radiotoxicity study and treated as follows: control group 1: 3 × vehicle (PBS + kolliphor HS 15 (1 mg/mL)); control group 2: 3 × 1200 pmol [^175Lu]Lu-NeoB; treatment group 1: 3 × 40 MBq/400 pmol [^177Lu]Lu-NeoB; treatment group 2: 3 × 80 MBq/800 pmol [^177Lu]Lu-NeoB; and treatment group 3: 3 × 120 MBq/1200 pmol [^177Lu]Lu-NeoB.
(§2) Animals received 3 injections with an interval of 7 days between each injection.
At 5, 19, and 43 weeks after the first injection, 3–4 male and 3–4 female animals of each group were sacrificed by isoflurane overdose after a blood sample was taken by retro-orbital puncture. Hereafter, the axillary lymph nodes, mesenteric lymph nodes, skin, mammary fat pad, sternum, pancreas, adrenal glands, kidneys, spleen, liver, gallbladder, stomach, duodenum, jejunum, ileum, caecum, colon, rectum, testes (M), epididymis (M), seminal vesicles (M), prostate gland (M), ovaries (F), oviducts (F), uterus-cervix (F), vagina (F), bladder, ureters, sciatic nerve, skeletal muscle, femur, lungs, trachea, esophagus, thymus, thyroid gland, aorta, heart, brain, pituitary gland, eyes, harderian glands, tongue, spinal column, and the tail were collected and analyzed macroscopically. All organs and tissues were formalin fixed (4% buffered formaldehyde) and shipped to the European Research Biology Centre (ERBC, Pomezia, Rome, Italy) where histological sampling, embedding, sectioning (5 µm thick), and hematoxylin–eosin staining were performed according to standard guidelines. All organs and tissues were analyzed microscopically by an experienced pathologist. A 5-point grading scale was used: 1: minimal change, 2: mild change, 3: moderate change, 4: marked change, 5: severe change.

The test system of series [2] is healthy Balb/c mice. In words: Toxicity study, hematology (same groups as A3). It counts as in vivo, mouse. The settings on record: control group 2, 5, 11, 19, 30, 43 wk, mean±SD. As for the experimental part: as §1, §2
Throughout the study, the animals were observed daily to check for physical signs of toxicity and signs of discomfort, and animals were weighed 2–3 times per week. Furthermore, at week -1, 5, 11, 19, 30, and 43, blood samples were collected by submandibular puncture from all animals that were in the study at that time point. All blood samples were analyzed for hematological parameters (hematocrit; hemoglobin; red blood cell count; white blood cell count; hemoglobin; mean cell hemoglobin concentration; mean cell volume; platelet count) on the scilVet abc + counter (Covetrus).

Series [3] concerns healthy Balb/c mice. In words: Toxicity study, clinical chemistry. It counts as in vivo, mouse. The settings on record: control group 2, 5, 11, 19, 30, 43 wk, mean±SD. As for the experimental part:
as §1, §2
In addition, the following clinical chemistry parameters were measured: sodium, potassium chloride, calcium, glucose, creatinine, urea, alanine aminotransferase (ALT), aspartate aminotransferase (AST), alkaline phosphatase (ALP), amylase, lipase, and cholesterol, using the Roche/Hitachi cobas c systems according to the standard protocol. To reach the volume necessary for measuring the clinical chemistry parameters, the blood plasma was diluted 3–5 times with demineralized water.

In a further series the test system is patients. The note with it: human, in vivo; cited from earlier work. From the text: Due to the very small size of murine kidneys and the long range of β^− particles, the murine kidneys receive a more homogeneous radiation dose compared to the much larger human kidneys. […] These ... || Bone marrow toxicity is a concern when using targeted radionuclide therapy with, for example, lutetium-177 labeled peptides with a long circulation time. Here, we found a decrease in WBC counts 5 weeks after radioligand injection in treatment group 3, which received bone marrow doses between 0.20 and 0.36 Gy. Although not clear from our histopathological analysis, this finding could potentially indicate bone marrow suppression. However, it should also be noted that the brief drop in WBC counts may have (partly) been caused by the reported urinary bladder inflammation. The observed ...

[4] abbreviates: female wk 43, control group 2, grade 1.
Where [5] appears, read: female wk 43, control group 2, grade 2.
The mark [6] stands for this setting: male wk 5, control group 2, grade 1.
[7] abbreviates: male wk 5, control group 2, grade 2.
[8] abbreviates: male wk 19, control group 2, grade 1.
The mark [9] stands for this setting: male wk 43, control group 2, grade 1.
Setting [10] is: male wk 43, control group 2, grade 2.

Several values for one entry are separate records, joined by “and”; a condition that tells them apart may be missing. Identical values can stand only once.

On to `CC(C)CC(CC(C)C)NC(=O)[C@H](Cc1cnc[nH]1)NC(=O)CNC(=O)[C@@H](NC(=O)[C@H](C)NC(=O)[C@H](Cc1c[nH]c2ccccc12)NC(=O)[C@H](CCC(N)=O)NC(=O)[C@@H](Cc1ccccc1)NC(=O)COCC(=O)Nc1ccc(CNC(=O)CN2CCN(CC(=O)O)CCN(CC(=O)O)CCN(CC(=O)O)CC2)cc1)C(C)C` [[^175Lu]Lu-NeoB], for which, in the series on healthy Balb/c mice [1] (control group 2, 3× 1200 pmol, male and female), the Treatment-related toxicological effects result was “did not show any treatment-related toxicological effects”. The “Adrenal glands subcapsular cell hyperplasia, incidence” value in the series on healthy Balb/c mice [1] (female wk 5, control group 2, grade 1) was 2/3; with healthy Balb/c mice [1] (female wk 19, control group 2, grade 1), 1/3; with healthy Balb/c mice [1] (female wk 19, control group 2, grade 2) it was 2/3; in the series on healthy Balb/c mice [1] (setting [4]) it was 1/4; with healthy Balb/c mice [1] (setting [5]), 2/4; in the series with healthy Balb/c mice [1] (setting [6]), 1/3. Besides, the “Adrenal glands subcapsular cell hyperplasia, incidence” value is listed as 1/3 in the series with healthy Balb/c mice [1] (setting [7]), 2/3 with healthy Balb/c mice [1] (setting [8]), 3/4 with healthy Balb/c mice [1] (setting [9]) and 1/4 in the series on healthy Balb/c mice [1] (setting [10]). For the same compound, in the series on healthy Balb/c mice [1] (female wk 5, control group 2, grade 3), the “Brain artifacts, incidence” value was 1/3. Moreover, the “Liver inflammatory cell foci, incidence” value in the series with healthy Balb/c mice [1] (setting [4]) is given as 1/4. In addition, the figures for the “Pancreas inflammatory cell foci, incidence” value in the series on healthy Balb/c mice [1] (setting [5]), in the series on healthy Balb/c mice [1] (setting [8]) and in the series on healthy Balb/c mice [1] (setting [10]) were 1/4, 1/3 and 1/4, respectively. In the series on healthy Balb/c mice [1] (female wk 43, control group 2, grade 4), the “Uterus endometrial hyperplasia, incidence” value is given as 1/4. In addition, in the series on healthy Balb/c mice [1] (setting [6]), the “Adrenal glands accessory cortical tissue, incidence” value is on record as 1/3. Moreover, the “Spleen extramedullary haematopoiesis, incidence” value in the series with healthy Balb/c mice [1] (setting [7]) is listed as 1/3. Besides, the “Urinary bladder proteinaceous plug, incidence” value in the series on healthy Balb/c mice [1] (male wk 19, control group 2, grade 2) is 1/3. In addition, the “Kidneys inflammatory cell foci, incidence” value in the series on healthy Balb/c mice [1] (setting [9]) was 1/4. The “Testes germ cell depletion, incidence” value in the series on healthy Balb/c mice [1] (setting [9]) is listed as 1/4. Moreover, in the series with healthy Balb/c mice [1] (male wk 43, control group 2, grade 3), the “Kidneys cyst/s, incidence” value is recorded as 1/4. In addition, the WBC with healthy Balb/c mice [2] (female) was 7.27 ± 1.51 103/mm3 and 8.51 ± 2.34 103/mm3 and 6.74 ± 3.19 103/mm3 and 10.38 ± 2.86 103/mm3 and 7.40 ± 0.72 103/mm3; in the series on healthy Balb/c mice [2] (male), 7.67 ± 1.50 103/mm3 and 8.37 ± 2.67 103/mm3 and 9.53 ± 2.84 103/mm3 and 9.80 ± 2.25 103/mm3 and 6.70 ± 2.71 103/mm3. The “Alk. Phosphatase” value was 100.20 ± 6.96 U/L and 84.43 ± 7.63 U/L and 73.57 ± 9.88 U/L and 86.25 ± 8.54 U/L and 71.25 ± 14.93 U/L in the series with healthy Balb/c mice [3] (female); 117.70 ± 8.30 U/L and 100.29 ± 7.72 U/L and 62.50 ± 6.45 U/L and 80.00 ± 7.07 U/L and 67.50 ± 2.89 U/L in the series with healthy Balb/c mice [3] (male). Further, the Urea in the series with healthy Balb/c mice [3] (female) was 7.83 ± 0.88 mmol/L and 7.07 ± 1.19 mmol/L and 6.14 ± 0.38 mmol/L and 7.00 ± 0.00 mmol/L and 6.17 ± 0.76 mmol/L; in the series with healthy Balb/c mice [3] (male), 7.17 ± 0.64 mmol/L and 5.61 ± 0.86 mmol/L and 5.75 ± 0.65 mmol/L and 6.75 ± 1.55 mmol/L and 8.00 ± 2.12 mmol/L.
[^177Lu]Lu-DOTATATE: in the series with patients, the “Average absorbed bone marrow dose” value is recorded as 2 Gy; the “Average kidney dose in patients” value is recorded as 20.1 ± 4.9 Gy; the “Minimal to mild nephrotoxicity, cases” value was 6/79.
